Assay results as given in PMC5449618 (Nucleic Acids Research, 2017).

B1: Sumo–BRPF2 (1–205) (domain or fragment, human, UniProt O95696 1-205, looked up)
chain: MRRKGRCHRGSAARHPSSPCSVKHSPTRETLTYAQAQRMVEIEIEGRLHRISIFDPLEIILEDDLTAQEMSECNSNKENSERPPVCLRTKRHKNNRVKKKNEALPSAHGTPASASALPEPKVRIVEYSPPSAPRRPPVYYKFIEKSAEELDNEVEYDMDEEDYAWLEIVNEKRKGDCVPAVSQSMFEFLMDRFEKESHCENQKQG
B2: Sumo–BRPF2 (1–80) (domain or fragment, human, UniProt O95696 1-80, looked up)
chain: MRRKGRCHRGSAARHPSSPCSVKHSPTRETLTYAQAQRMVEIEIEGRLHRISIFDPLEIILEDDLTAQEMSECNSNKENS

These binders were tested against GST-fused HBO1 MYST domain (residues 336–611) (human, UniProt O95251 336-611) (assay: pull-down).
Sequence of GST-fused HBO1 MYST domain (residues 336–611) (O95251 336-611): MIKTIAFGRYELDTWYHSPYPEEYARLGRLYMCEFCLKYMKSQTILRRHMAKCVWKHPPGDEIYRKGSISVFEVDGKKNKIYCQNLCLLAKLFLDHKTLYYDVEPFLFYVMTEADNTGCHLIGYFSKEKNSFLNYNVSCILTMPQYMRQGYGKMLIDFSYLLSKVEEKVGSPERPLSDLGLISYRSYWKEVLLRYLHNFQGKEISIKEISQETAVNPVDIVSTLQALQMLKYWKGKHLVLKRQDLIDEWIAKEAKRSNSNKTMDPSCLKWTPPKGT
LTYAQAQRMVAIAIAGRLHRISIFDPLEIILEDDLTAQEMSECNSNKENS (domain or fragment, human, UniProt O95696 31-80, looked up) [Sumo–BRPF2 (31–80) E41A/E43A/E45A]: binds. LTYAQAQRMVKIKIKGRLHRISIFDPLEIILEDDLTAQEMSECNSNKENS (domain or fragment, human, UniProt O95696 31-80, looked up) [Sumo–BRPF2 (31–80) E41K/E43K/E45K]: binds. LTYAQAQRMVEIEIEGRLHRISIFDPLEIILKKKLTAQEMSECNSNKENS (domain or fragment, human, UniProt O95696 31-80, looked up) [Sumo–BRPF2 (31–80) E62K/D63K/D64K]: binds. LTYAQAQRMVEIEIEGRLHRISIFDPLEIILAAALTAQEMSECNSNKENS (domain or fragment, human, UniProt O95696 31-80, looked up) [Sumo–BRPF2 (31–80) E62A/D63A/D64A]: binds. LTYAQAQRMVEIEIEGRLHRISIFDPLEIILE (domain or fragment, human, UniProt O95696 31-62, looked up) [Sumo–BRPF2 (31–62)]: binds. MVEIEIEGRLHRISIFDPLEIILE (domain or fragment, human, UniProt O95696 39-62, looked up) [Sumo–BRPF2 (39–62)]: binds. MVEIEIEGRLHRISIFDPLEIILEDDLT (domain or fragment, human, UniProt O95696 39-66, looked up) [Sumo–BRPF2 (39–66)]: binds. B1: binds. B2: binds.

The binders below were run against HBO1 MYST domain (residues 336–611), without tag, co-expressed with BRPF2 (human, UniProt O95251 336-611) (assay: crystal structure).
Sequence of HBO1 MYST domain (residues 336–611), without tag, co-expressed with BRPF2 (O95251 336-611): as the sequence (O95251 336-611) above
In the case of LTYAQAQRMVEIEIEGRLHRISIFDPLEIILEDDLTAQEMSECNSNKENS (domain or fragment, human, UniProt O95696 31-80, looked up) [BRPF2 (31–80), His6 tag removed, co-expressed with the HBO1 MYST domain], the “stoichiometry N” value is reported as 1.
